What follows are sequences tested on Escherichia coli TOP10 (assay: shrunken log2 fold change of peptide-encoding DNA abundance (4.5 h post-induction vs induction); higher = less antimicrobial activity (less host growth inhibition)). Settings: time post-induction: 4.5 h; library: site-saturation at positions 5, 18, 19, 20.
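Also: peptides expressed intracellularly from a pBAD plasmid library in pooled LB shake-flask culture, induced with 0.3% L-arabinose, DNA abundance read by NGS, three biological replicates, DESeq2 with apeglm shrinkage.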

Sequence	shrunken log2 fold change
RRIRNRPPRLPRPRPRPAPTPRP	0.809
RRIRDRPPRLPRPRPRPLQRPRP	-0.00347
RRIRTRPPRLPRPRPRPMGGPRP	-0.0576
RRIRCRPPRLPRPRPRPVSYPRP	0.0707
RRIRPRPPRLPRPRPRPVISPRP	-0.00579
RRIRQRPPRLPRPRPRPAGCPRP	0.409
RRIRMRPPRLPRPRPRPRMAPRP	1.38
RRIRGRPPRLPRPRPRPQKAPRP	-0.027
RRIRMRPPRLPRPRPRPNPPPRP	0.311
RRIRFRPPRLPRPRPRPYEMPRP	-0.412
RRIRCRPPRLPRPRPRPNIVPRP	-0.34
RRIRHRPPRLPRPRPRPTLEPRP	0.319
RRIRDRPPRLPRPRPRPPSWPRP	0.102
RRIRQRPPRLPRPRPRPQKDPRP	-0.29
RRIRIRPPRLPRPRPRPVPNPRP	-0.00284
RRIRKRPPRLPRPRPRPPEEPRP	1.79
RRIRERPPRLPRPRPRPELTPRP	0.534
RRIRERPPRLPRPRPRPTPVPRP	0.059
RRIRNRPPRLPRPRPRPVIDPRP	-0.123
RRIRFRPPRLPRPRPRPNWSPRP	-0.0531
RRIRMRPPRLPRPRPRPPWKPRP	0.567
RRIRERPPRLPRPRPRPRYAPRP	-0.118

Sequence	shrunken log2 fold change
RRIRERPPRLPRPRPRPIKNPRP	-1.13
RRIRKRPPRLPRPRPRPWHMPRP	-0.00936
RRIRLRPPRLPRPRPRPTEWPRP	-0.0906
RRIRARPPRLPRPRPRPVHYPRP	-0.198
RRIRTRPPRLPRPRPRPMPWPRP	0.253
RRIRCRPPRLPRPRPRPYFLPRP	-0.823
RRIRVRPPRLPRPRPRPKHPPRP	0.28
RRIRYRPPRLPRPRPRPTQLPRP	-0.46
RRIRHRPPRLPRPRPRPLGSPRP	0.0703
RRIRIRPPRLPRPRPRPVIRPRP	0.00816
RRIRRRPPRLPRPRPRPYKEPRP	-0.463
RRIRIRPPRLPRPRPRPITPPRP	-0.421
RRIRQRPPRLPRPRPRPQVIPRP	-0.0697
RRIRTRPPRLPRPRPRPAHPPRP	0.396
RRIRTRPPRLPRPRPRPPNQPRP	0.185
RRIRYRPPRLPRPRPRPCSAPRP	-0.212
RRIRYRPPRLPRPRPRPGLMPRP	-0.103
RRIRHRPPRLPRPRPRPDCYPRP	-0.0716
RRIRERPPRLPRPRPRPHANPRP	-0.332
RRIRYRPPRLPRPRPRPYYMPRP	-1.06
RRIRGRPPRLPRPRPRPDPTPRP	1.06
RRIRQRPPRLPRPRPRPFNLPRP	-0.649

Sequence	shrunken log2 fold change
RRIRKRPPRLPRPRPRPYIRPRP	-0.018
RRIRCRPPRLPRPRPRPYNEPRP	-0.51
RRIRFRPPRLPRPRPRPNLQPRP	-0.264
RRIRLRPPRLPRPRPRPHHTPRP	-0.558
RRIRRRPPRLPRPRPRPAPNPRP	0.976
RRIRTRPPRLPRPRPRPLNHPRP	-0.204
RRIRSRPPRLPRPRPRPSFCPRP	-0.251
RRIRLRPPRLPRPRPRPAKRPRP	0.0374
RRIRRRPPRLPRPRPRPEDPPRP	0.192
RRIRGRPPRLPRPRPRPYSEPRP	-0.093
RRIRWRPPRLPRPRPRPWMHPRP	-0.0548
RRIRVRPPRLPRPRPRPWPKPRP	0.0246
RRIRFRPPRLPRPRPRPCYFPRP	-0.379
RRIRARPPRLPRPRPRPYQYPRP	-0.352
RRIRYRPPRLPRPRPRPNLTPRP	-0.372
RRIRNRPPRLPRPRPRPCVFPRP	-0.162
RRIRHRPPRLPRPRPRPQIWPRP	-0.327
RRIRVRPPRLPRPRPRPRQMPRP	0.117
RRIRQRPPRLPRPRPRPTHPPRP	0.374
RRIRNRPPRLPRPRPRPMKRPRP	0.0981
RRIRFRPPRLPRPRPRPMKGPRP	-0.0547
RRIRLRPPRLPRPRPRPHEWPRP	-0.0141

Sequence	shrunken log2 fold change
RRIRQRPPRLPRPRPRPYRRPRP	0.0231
RRIRKRPPRLPRPRPRPHDSPRP	-0.0516
RRIRMRPPRLPRPRPRPWMNPRP	-0.00973
RRIRIRPPRLPRPRPRPGDYPRP	-0.0189
RRIRMRPPRLPRPRPRPPVFPRP	0.704
RRIRDRPPRLPRPRPRPEELPRP	0.00153
RRIRLRPPRLPRPRPRPLSDPRP	0.0376
RRIRCRPPRLPRPRPRPMFMPRP	-0.246
RRIRLRPPRLPRPRPRPLITPRP	-0.238
RRIRHRPPRLPRPRPRPRQAPRP	0.495
RRIRVRPPRLPRPRPRPWWQPRP	-0.201
RRIRHRPPRLPRPRPRPSQLPRP	-0.00148
RRIRMRPPRLPRPRPRPMGWPRP	0.808
RRIRFRPPRLPRPRPRPNTQPRP	-0.309
RRIRNRPPRLPRPRPRPNRDPRP	-0.0094
RRIRPRPPRLPRPRPRPRERPRP	0.121
RRIRLRPPRLPRPRPRPESKPRP	0.286
RRIRGRPPRLPRPRPRPYKKPRP	-0.186
RRIRLRPPRLPRPRPRPWNDPRP	0.041
RRIRFRPPRLPRPRPRPINSPRP	-0.428
RRIRWRPPRLPRPRPRPMRLPRP	0.905
RRIRMRPPRLPRPRPRPKMRPRP	1.21

Sequence	shrunken log2 fold change
RRIRARPPRLPRPRPRPNCSPRP	0.179
RRIRQRPPRLPRPRPRPEAYPRP	0.0335
RRIRMRPPRLPRPRPRPYAMPRP	-0.155
RRIRERPPRLPRPRPRPYWRPRP	-0.0166
RRIRSRPPRLPRPRPRPHMPPRP	-0.401
RRIRCRPPRLPRPRPRPPMFPRP	-0.121
RRIRFRPPRLPRPRPRPFMMPRP	-0.693
RRIRHRPPRLPRPRPRPQFCPRP	-0.208
RRIRRRPPRLPRPRPRPIGTPRP	0.00964
RRIRHRPPRLPRPRPRPDDKPRP	-0.359
RRIRGRPPRLPRPRPRPMICPRP	0.166
RRIRSRPPRLPRPRPRPRLHPRP	0.15
RRIRARPPRLPRPRPRPVTFPRP	0.0573
RRIRCRPPRLPRPRPRPRQWPRP	-0.108
RRIRTRPPRLPRPRPRPCEDPRP	-0.0385
RRIRDRPPRLPRPRPRPDSRPRP	-0.00898
RRIRFRPPRLPRPRPRPGISPRP	-0.0961
RRIRMRPPRLPRPRPRPLEEPRP	3.36
RRIRMRPPRLPRPRPRPYIIPRP	-0.151
RRIRLRPPRLPRPRPRPFWHPRP	-0.0379
RRIRERPPRLPRPRPRPGVYPRP	-0.049

Reference: the supplement of paper PMC9112550, “Optimization of the antimicrobial peptide Bac7 by deep mutational scanning” (BMC Biology, 2022)
